From the RNAGym collection of RNA variant scans (doi:10.1021/acssynbio.7b00057)

B1: Pistol ribozyme (parent)
chain: GGGUCGUUGUUCCAUAAUCGCGUGGAUAUGGCACGCAAGUUUCUACCGGGCACCGUAAAUGUCCGACUGGAGCCGUUCGGGCGGCUAUAAACAGACCUCAGGCCCGAAGCGUGGCGGCACCUGCCGCCGGUGGUAAAAAAGAUCGGAAGAGCACACGUCU

Variants of: B1
Assay: aptazyme ON/OFF ratio, guanine; higher = stronger switching; co-transcriptional cleavage with and without guanine

Variant | aptazyme ON/OFF ratio
U7A U8A U10G C13G | 1.12
U7A U8A U10G C13U | 1.22
U7A U8A U10G C13A | 1.31
U7A U8A U10C U11G | 1.2
U7A U8A U10C U11C | 1.04
U7A U8A U10C U11A | 1.2
U7A U8A U10G C12G C13U | 1.28
U7A U8A U10G C12G C13G | 0.977
U7A U8A U10G C12G C13A | 1.17
U7A U8A G9U U11C C12U C13U | 1.32
U7A U8A G9U U11C C12U C13G | 1.02
U7A U8A G9U U11C C12U C13A | 1.18
U7A U8A G9U U11G C13A | 1.13
U7A U8A G9U U11G C13G | 1.08
U7A U8A G9U U11G C13U | 1.16
U7A U8A G9U U11G C12U C13A | 1.28
U7A U8A G9U U11G C12U C13U | 1.55
U7A U8A G9U U11G C12U C13G | 1.17
U7A U8A U10C U11A C12A C13U | 1.16
U7A U8A U10C U11A C12A C13A | 1.1
U7A U8A U10C U11A C12A C13G | 1.18
U7A U8A U10A U11A C13U | 1.11
U7A U8A U10A U11A C13A | 1.16
U7A U8A U10A U11A C13G | 1.18

Variant | aptazyme ON/OFF ratio
U7A U8A U10G U11C C12A | 1.61
U7A U8A U10G U11C C12U | 1.1
U7A U8A U10G U11C C12G | 1.32
U7A U8A G9U U10G U11C C12U C13A | 1.09
U7A U8A G9U U10G U11C C12U C13U | 1.28
U7A U8A G9U U10G U11C C12U C13G | 1.22
U7A U8A G9U U10G C12G C13A | 1.21
U7A U8A G9U U10G C12G C13G | 1.08
U7A U8A G9U U10G C12G C13U | 1.23
U7A U8A U10C U11A C13A | 1.13
U7A U8A U10C U11A C13U | 1.05
U7A U8A U10C U11A C13G | 1.09
U7A U8A U10A U11G C12G C13G | 1.6
U7A U8A U10A U11G C12G C13A | 0.986
U7A U8A U10A U11G C12G C13U | 1.35
U7A U8A G9U U10C U11C C12G | 1.06
U7A U8A G9U U10C U11C C12A | 1.04
U7A U8A G9U U10C U11C C12U | 1.02
U7A U8A U10A U11C C13G | 1.06
U7A U8A U10A U11C C13U | 0.989
U7A U8A U10A U11C C13A | 1.04
U7A U8A U10A C13G | 1.06
U7A U8A U10A C13U | 1.06
U7A U8A U10A C13A | 1.11

Variant | aptazyme ON/OFF ratio
U7A U8A G9U U10C U11C C13A | 1.04
U7A U8A G9U U10C U11C C13U | 1.04
U7A U8A G9U U10C U11C C13G | 1.04
U7A U8A G9U U10G C12U C13A | 1.17
U7A U8A G9U U10G C12U C13G | 1.26
U7A U8A G9U U10G C12U C13U | 1.51
U7A U8A G9U U10G U11A C12A C13A | 1.19
U7A U8A G9U U10G U11A C12A C13U | 1.16
U7A U8A G9U U10G U11A C12A C13G | 1.09
U7A U8A U10G C12G | 1.43
U7A U8A U10G C12A | 1.33
U7A U8A U10G C12U | 1.35
U7A U8A G9U U10G U11C C13G | 1.09
U7A U8A G9U U10G U11C C13A | 1.06
U7A U8A G9U U10G U11C C13U | 1.02
U7A U8A U10A U11A C12U C13G | 1.24
U7A U8A U10A U11A C12U C13U | 1.14
U7A U8A U10A U11A C12U C13A | 1.33
U7A U8A U10A U11G | 1.17
U7A U8A U10A U11A | 1.18
U7A U8A U10A U11C | 0.996
U7A U8A G9U U10G U11A C12U C13A | 1.14
U7A U8A G9U U10G U11A C12U C13U | 1.13
U7A U8A G9U U10G U11A C12U C13G | 1.15

Variant | aptazyme ON/OFF ratio
U7A U8A U10A U11G C13G | 1.28
U7A U8A U10A U11G C13U | 1.26
U7A U8A U10A U11G C13A | 1.16
U7A U8A G9U U10G U11A C13A | 1.02
U7A U8A G9U U10G U11A C13U | 1.1
U7A U8A G9U U10G U11A C13G | 1.04
U7A U8A U10A U11G C12G | 0.984
U7A U8A U10A U11G C12A | 1.09
U7A U8A U10A U11G C12U | 1.17
U7A U8A U10A U11G C12U C13A | 1.34
U7A U8A U10A U11G C12U C13U | 1.31
U7A U8A U10A U11G C12U C13G | 1.15
U7A U8A U10C C13U | 1.98
U7A U8A U10C C13G | 1.09
U7A U8A U10C C13A | 1.11
U7A U8A G9U U10C U11C C12U C13A | 1.02
U7A U8A G9U U10C U11C C12U C13U | 1.08
U7A U8A G9U U10C U11C C12U C13G | 1.02
U7A U8A G9U U10C U11G C12A C13A | 1.14
U7A U8A G9U U10C U11G C12A C13G | 1.11
U7A U8A G9U U10C U11G C12A C13U | 1.18
U7A U8A U10A U11C C12A C13G | 1.12
U7A U8A U10A U11C C12A C13A | 1.04
U7A U8A U10A U11C C12A C13U | 1.11

Variant | aptazyme ON/OFF ratio
U7A U8A G9U U10C U11C C12G C13A | 1.07
U7A U8A G9U U10C U11C C12G C13G | 1.07
U7A U8A G9U U10C U11C C12G C13U | 1.04
U7A U8A U10A C12A C13U | 1.37
U7A U8A U10A C12A C13G | 1.03
U7A U8A U10A C12A C13A | 1.23
U7A U8A G9U U11C C12A C13G | 1.13
U7A U8A G9U U11C C12A C13A | 1.12
U7A U8A G9U U11C C12A C13U | 1.17
U7A U8A G9U U10G U11G C12G C13G | 1.16
U7A U8A G9U U10G U11G C12G C13U | 1.22
U7A U8A G9U U10G U11G C12G C13A | 1.21
U7A U8A U10G U11C C12U C13G | 1.48
U7A U8A U10G U11C C12U C13A | 1.42
U7A U8A U10G U11C C12U C13U | 1.47
U7A U8A G9U U11C C13U | 1.04
U7A U8A G9U U11C C13G | 1.05
U7A U8A G9U U11C C13A | 1.11
U7A U8A U10C U11A C12U C13A | 1.16
U7A U8A U10C U11A C12U C13U | 1.11
U7A U8A U10C U11A C12U C13G | 1.1
U7A U8A G9U U10C U11A C12A C13U | 1.23
U7A U8A G9U U10C U11A C12A C13G | 1.14
U7A U8A G9U U10C U11A C12A C13A | 1.2

Variant | aptazyme ON/OFF ratio
U7A U8A U10G C12A C13G | 1.06
U7A U8A U10G C12A C13A | 1.21
U7A U8A U10G C12A C13U | 1.19
U7A U8A U10C C12G | 1.16
U7A U8A U10C C12A | 1.16
U7A U8A U10C C12U | 1.68
U7A U8A G9U U10G U11C C12U | 1.08
U7A U8A G9U U10G U11C C12G | 1.2
U7A U8A G9U U10G U11C C12A | 1.33
U7A U8A G9U U11G C12A | 1.1
U7A U8A G9U U11G C12G | 1.19
U7A U8A G9U U11G C12U | 1.31
U7A U8A U10G U11A | 1.03
U7A U8A U10G U11C | 1.03
U7A U8A U10G C12U C13G | 1.13
U7A U8A U10G C12U C13A | 1.51
U7A U8A U10G C12U C13U | 1.42
U7A U8A G9U U11A C13A | 1.19
U7A U8A G9U U11A C13G | 1.06
U7A U8A G9U U11A C13U | 1.26
U7A U8A U10A U11A C12G C13A | 1.05
U7A U8A U10A U11A C12G C13G | 1.45
U7A U8A U10A U11A C12G C13U | 1.13
U7A U8A U10A | 1.05

Variant | aptazyme ON/OFF ratio
U7A U8A U10G | 1.52
U7A U8A U10C | 3.05
U7A U8A G9U U10C U11G C13U | 1.14
U7A U8A G9U U10C U11G C13A | 1.1
U7A U8A G9U U10C U11G C13G | 1.17
U7A U8A U10A U11G C12A C13G | 1.07
U7A U8A U10A U11G C12A C13A | 1.19
U7A U8A U10A U11G C12A C13U | 1.18
U7A U8A G9U U10C U11A C13U | 1.08
U7A U8A G9U U10C U11A C13G | 1.17
U7A U8A G9U U10C U11A C13A | 1.22
U7A U8A G9U U11A C12G C13A | 0.953
U7A U8A G9U U11A C12G C13U | 1.14
U7A U8A G9U U11A C12G C13G | 1.16
U7A U8A U10C U11G C13G | 1.2
U7A U8A U10C U11G C13A | 1.13
U7A U8A U10C U11G C13U | 1.17
U7A U8A U10G U11A C12A | 1.4
U7A U8A U10G U11A C12G | 1.34
U7A U8A U10G U11A C12U | 1.24
U7A U8A G9U U10G U11G C12U C13U | 1.22
U7A U8A G9U U10G U11G C12U C13G | 1.24
U7A U8A G9U U10G U11G C12U C13A | 1.47
